# Literature values, collected in PMC3819593.
# pKd: −log10 of the molar value.
# Assays:
# LLT1 (Homo sapiens) = LLT1 (Homo sapiens) (UniProt Q9UHP7)
# AICL (Homo sapiens) = AICL (Homo sapiens) (UniProt Q92478)
# UniProt Q92478, sequence (Q92478 whole entry): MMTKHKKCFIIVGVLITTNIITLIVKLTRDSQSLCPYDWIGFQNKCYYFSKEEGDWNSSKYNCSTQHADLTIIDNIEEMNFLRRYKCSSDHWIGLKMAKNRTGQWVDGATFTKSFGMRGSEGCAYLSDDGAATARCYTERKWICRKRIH
# UniProt Q9UHP7, sequence (Q9UHP7 whole entry): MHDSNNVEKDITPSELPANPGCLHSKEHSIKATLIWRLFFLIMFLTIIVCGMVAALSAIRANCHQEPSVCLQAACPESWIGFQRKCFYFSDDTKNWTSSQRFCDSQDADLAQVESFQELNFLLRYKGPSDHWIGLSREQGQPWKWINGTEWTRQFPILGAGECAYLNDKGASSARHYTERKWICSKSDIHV
Substance,pKd (LLT1 (Homo sapiens)),pKd (AICL (Homo sapiens))
NKRP1A (from UniProt Q12918),4.32,
NKp80 (from UniProt Q9NZS2),,5.40
